The assay addresses radial spoke protein 9 (RSP9) (C. reinhardtii). The experiment in a line: cryo-EM structure.

By stoichiometry N is commonly meant a count of units in the complex or per binding partner. Take “radial spoke protein 9 (RSP9) (natural protein)”: the stoichiometry N was 2.

For the origin of these results see article PMC7855469.
